Target: recombinant mature rat IL-33 with N-terminal His-tag (rat) (UniProt Q66H70)
Assay: cell-based or functional assay

Sequence of recombinant mature rat IL-33 with N-terminal His-tag (rat) (Q66H70 109-264): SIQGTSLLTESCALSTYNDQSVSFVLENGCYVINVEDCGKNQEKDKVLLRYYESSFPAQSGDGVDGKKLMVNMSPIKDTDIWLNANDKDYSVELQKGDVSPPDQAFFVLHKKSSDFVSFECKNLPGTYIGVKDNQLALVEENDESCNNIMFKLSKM

NF-κB promoter activity (luciferase reporter, % increase) in neonatal rat cardiomyocytes: 42%
Substance: mouse soluble ST2 (R&D) (from UniProt P14719 27-337)
